The target in assay [1] is T1, human C4b (human) (UniProt P0C0L5).
T1 sequence: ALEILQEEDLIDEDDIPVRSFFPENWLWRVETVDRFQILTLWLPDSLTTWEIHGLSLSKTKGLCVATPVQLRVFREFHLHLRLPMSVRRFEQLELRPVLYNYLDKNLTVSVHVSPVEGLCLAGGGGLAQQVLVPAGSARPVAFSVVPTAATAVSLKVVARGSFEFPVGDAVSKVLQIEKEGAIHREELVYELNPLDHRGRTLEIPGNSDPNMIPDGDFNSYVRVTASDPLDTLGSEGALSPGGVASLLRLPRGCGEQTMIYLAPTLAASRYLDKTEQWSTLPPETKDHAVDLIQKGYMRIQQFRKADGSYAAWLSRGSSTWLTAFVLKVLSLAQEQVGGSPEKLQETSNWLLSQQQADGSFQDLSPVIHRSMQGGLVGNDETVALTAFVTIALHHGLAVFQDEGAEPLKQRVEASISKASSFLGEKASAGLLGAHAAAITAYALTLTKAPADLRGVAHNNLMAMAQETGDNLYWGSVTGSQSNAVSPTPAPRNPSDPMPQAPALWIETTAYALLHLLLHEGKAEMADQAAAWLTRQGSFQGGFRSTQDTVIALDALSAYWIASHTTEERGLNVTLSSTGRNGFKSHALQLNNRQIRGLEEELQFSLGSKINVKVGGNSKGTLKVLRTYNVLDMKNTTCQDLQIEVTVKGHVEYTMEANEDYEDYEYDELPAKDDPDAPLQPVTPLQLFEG

The target of assay [2] is soluble human C3b (human) (UniProt P01024).
The target in assay [3] is T2, human C4b (human) (UniProt P0C0L4).
T2 sequence: T1 sequence with T151A, G317D, L364P, S365C, I368L, H369D, S420N, A451V, R454L, A530S

Substitutions are numbered along the chain they refer to.

Regarding “CFI-HSA variant E457G; E461Q-R462K; F464Y (enzyme)”, the C4b Screen Ref Fold (fold vs CFI-HSA wild type) in assay [1] was 5.5. For the same substance, in assay [2], the iC3b Screen Ref Fold (fold vs CFI-HSA wild type) worked out at 0.69. In assay [3], this substance registered a C4c EC50 (nM) of 65.2 nM.
Turning to CFI-HSA variant E457G; K534Q (enzyme), in assay [1], the C4b Screen Ref Fold (fold of CFI-HSA wild type) was 5.24. Besides, the iC3b Screen Ref Fold (fold of CFI-HSA wild type) in assay [2] turned out to be 1.15. This substance also returned a C4c EC50 in assay [3] of 55.2 nM.
Take “CFI-HSA variant E457G; N531G; E416A (enzyme)”: the C4b Screen Ref Fold (fold of CFI-HSA wild type) in assay [1] is 5.02. In assay [2], the iC3b Screen Ref Fold (fold of CFI-HSA wild type) was found to be 2.66. Besides, the C4c EC50 (nM) in assay [3] amounted to 5.4 nM.
With “CFI-HSA variant E457G; N531G; E461Q; R462K; F464Y (enzyme)”, in assay [1], the C4b Screen Ref Fold (fold vs CFI-HSA wild type) was 5.97. The iC3b Screen Ref Fold (fold vs CFI-HSA wild type) in assay [2] was found to be 0.83. This substance had a C4c EC50 (nM) in assay [3] of 37.9 nM.
Take “CFI-HSA variant E457G; N531G; P535G (enzyme)”: the C4b Screen Ref Fold (fold of CFI-HSA wild type) in assay [1] stood at 5.48. Also, the iC3b Screen Ref Fold (fold of CFI-HSA wild type) in assay [2] was determined as 1.27. Further, the C4c EC50 in assay [3] was 54 nM.
On the same counts, the results for “CFI-HSA variant E457G; N531G; P535G; D425K (enzyme)” are 5.2, 1.3 and 39.4 nM.
On the same counts, the results for “CFI-HSA variant E457G; N531G; P535G; N422K (enzyme)” are 4.46, 1.87 and 51.6 nM.
Regarding “CFI-HSA variant E457G; P535G; K534Q (enzyme)”, the C4b Screen Ref Fold (fold of CFI-HSA wild type) in assay [1] is 3.85. Further, in assay [2], the iC3b Screen Ref Fold (fold of CFI-HSA wild type) came out at 0.82. For the same substance, in assay [3], the C4c EC50 was determined as 154 nM.
On the same counts, the results for “CFI-HSA variant E457G; P535G; P558S (enzyme)” are 3.18, 0.81 and 186 nM.
On the same counts, the results for CFI-HSA variant E457G; P558S (enzyme) are 4.98, 1.04 and 65.9 nM.
On the same counts, the results for CFI-HSA variant E487A (enzyme) are 1.47, 1.38 and 104 nM.
Consider CFI-HSA variant E487K (enzyme), for which, in assay [1], the C4b Screen Ref Fold (fold of CFI-HSA wild type) amounted to 1.11. In assay [2], the iC3b Screen Ref Fold (fold of CFI-HSA wild type) is 1.35. The substance also gave a C4c EC50 in assay [3] of 119 nM.
Turning to “CFI-HSA variant E530D-N531G; G533A-K534Q-P535K-E536N (enzyme)”, the C4b Screen Ref Fold (fold vs CFI-HSA wild type) in assay [1] amounted to 1.4. Moreover, in assay [2], the iC3b Screen Ref Fold (fold vs CFI-HSA wild type) was determined as 1.63. The substance further came in with a C4c EC50 (nM) in assay [3] of 470 nM.
For CFI-HSA variant F464G (enzyme), in assay [1], the C4b Screen Ref Fold (fold of CFI-HSA wild type) is 0.24. In addition, the iC3b Screen Ref Fold (fold of CFI-HSA wild type) in assay [2] worked out at 0.01. For the same substance, the C4c EC50 in assay [3] was more than 1000 nM.
For CFI-HSA variant K488E (enzyme), the C4b Screen Ref Fold (fold of CFI-HSA wild type) in assay [1] turned out to be 0.78. Besides, the iC3b Screen Ref Fold (fold of CFI-HSA wild type) in assay [2] turned out to be 1.07. Also, the C4c EC50 in assay [3] was more than 1000 nM.
On to “CFI-HSA variant N531G; D425R; E416A (enzyme)”, for which the C4b Screen Ref Fold (fold of CFI-HSA wild type) in assay [1] was found to be 2.64. The iC3b Screen Ref Fold (fold of CFI-HSA wild type) in assay [2] is 3.03. This substance showed a C4c EC50 (nM) in assay [3] of 81.4 nM.
With “CFI-HSA variant N531G; E457G; E461Q; F464Y (enzyme)”, the C4b Screen Ref Fold (fold vs CFI-HSA wild type) in assay [1] is 6.8. Also, the iC3b Screen Ref Fold (fold vs CFI-HSA wild type) in assay [2] stood at 0.27. The C4c EC50 (nM) in assay [3] was 44.1 nM.
Consider CFI-HSA variant N531G; K534Q (enzyme), for which the C4b Screen Ref Fold (fold of CFI-HSA wild type) in assay [1] came to 5.23. Also, the iC3b Screen Ref Fold (fold of CFI-HSA wild type) in assay [2] turned out to be 1.39. In addition, the C4c EC50 in assay [3] was found to be 43.5 nM.
On the same counts, the results for CFI-HSA variant N531G; P535G (enzyme) are 4.19, 1.28 and 126 nM.
On the same counts, the results for “CFI-HSA variant N531G; P535G; D425K (enzyme)” are 4.53, 1.35 and 78.9 nM.
As to “CFI-HSA variant N531G; P535G; K534Q (enzyme)”, the C4b Screen Ref Fold (fold of CFI-HSA wild type) in assay [1] is 4.47. Also, the iC3b Screen Ref Fold (fold of CFI-HSA wild type) in assay [2] worked out at 0.93. In assay [3], this substance registered a C4c EC50 of 118 nM.
“CFI-HSA variant N531G; P535G; P558S (enzyme)”: in assay [1], the C4b Screen Ref Fold (fold of CFI-HSA wild type) was determined as 3.82. Besides, in assay [2], the iC3b Screen Ref Fold (fold of CFI-HSA wild type) amounted to 0.95. In assay [3], this substance registered a C4c EC50 of 136 nM.
With CFI-HSA variant N531G; P558S (enzyme), the C4b Screen Ref Fold (fold of CFI-HSA wild type) in assay [1] amounted to 5.28. Also, in assay [2], the iC3b Screen Ref Fold (fold of CFI-HSA wild type) is 1.35. Besides, in assay [3], the C4c EC50 amounted to 63.2 nM.
With “CFI-HSA variant Y408L; E457G; R462K (enzyme)”, in assay [3], the C4c EC50 was determined as 142 nM.
Same read-out and setting: as for “CFI-HSA variant Y408L; E457G; R462K; F464Y (enzyme)”, the figure is 156 nM.
The substance “CFI-HSA variant Y408L; E457G; R462K; F464Y; N531G; GGSSGG (SEQ ID NO: 6); CR1 (ccp15-17) (from UniProt P17927) (enzyme)” yielded a C4c EC50 (nM) in assay [3] of 76.4 nM.
For the substance “CFI-HSA variant Y408L; E461Q; F464Y (enzyme)”, in assay [3], the C4c EC50 turned out to be 105 nM.
Same read-out and setting: as for “CFI-HSA variant Y408L; E530K; N531G (enzyme)”, the figure is 111 nM; as for “CFI-HSA variant Y408L; E530R; N531G (enzyme)”, 229 nM.
CFI-HSA variant Y408L; E530Y (enzyme): the C4c EC50 (nM) in assay [3] is more than 1000 nM.
CFI-HSA variant Y408L; N531G (enzyme) displayed a C4c EC50 in assay [3] of 71.9 nM.
Take “CFI-HSA variant Y408L; N531G; D425R; E530Y (enzyme)”: the C4c EC50 (nM) in assay [3] came out at 41.2 nM.
In turn, “CFI-HSA variant Y408L; N531G; E457G; F464Y (enzyme)” gave a C4c EC50 in assay [3] of 23.2 nM.
Still for that read-out and setting: to “CFI-HSA variant Y408L; N531G; E461Q; F464Y (enzyme)” belongs 46.7 nM; to “CFI-HSA variant Y408L; N531G; E461Q; R462K (enzyme)”, 24.5 nM.
In assay [3], “CFI-HSA variant Y408L; N531G; E530Y (enzyme)” returned a C4c EC50 (nM) of 54 nM.
In assay [3], “CFI-HSA variant Y408L; N531G; F464Y (enzyme)” came in with a C4c EC50 of 66.5 nM.
“CFI-HSA variant Y408L; N531G; P535G; WT; GGSSGG (SEQ ID NO: 6); CR1(ccp15-17) (enzyme)” came in with a C4c EC50 in assay [3] of 62.4 nM.
In assay [3], “CFI-HSA variant Y408L; N531G; R462K (enzyme)” displayed a C4c EC50 of 126 nM.
Still for that read-out and setting: as for “CFI-HSA variant Y408L; N531G; R462K; F464Y (enzyme)”, the figure is 98.2 nM; as for “CFI-HSA variant Y408L; N531G; WT; GGSSGG (SEQ ID NO: 6); CR1(ccp15-17) (enzyme)”, 40.9 nM.
In turn, CFI-HSA variant Y553K (enzyme) showed a C4c EC50 (nM) in assay [3] of 198 nM.
